Source: publication PMC11143374, “Conformations of Bcs1L undergoing ATP hydrolysis suggest a concerted translocation mechanism for folded iron-sulfur protein substrate” (Nature Communications, 2024)

Tests used:
[1] = target: AAA domain of mBcs1L (ΔNmBcs1L, residues 151-420) (mouse) (UniProt Q9CZP5); experiment: native gel or EMSA; BN-PAGE of ΔNmBcs1L with AMP-PNP or ATPγS
[2] = target: T1, mouse Bcs1L (mBcs1L), wild type, hexahistidine-tagged (mouse, UniProt Q9CZP5 1-418); experiment: cell-based or functional assay
T1 sequence (looked up): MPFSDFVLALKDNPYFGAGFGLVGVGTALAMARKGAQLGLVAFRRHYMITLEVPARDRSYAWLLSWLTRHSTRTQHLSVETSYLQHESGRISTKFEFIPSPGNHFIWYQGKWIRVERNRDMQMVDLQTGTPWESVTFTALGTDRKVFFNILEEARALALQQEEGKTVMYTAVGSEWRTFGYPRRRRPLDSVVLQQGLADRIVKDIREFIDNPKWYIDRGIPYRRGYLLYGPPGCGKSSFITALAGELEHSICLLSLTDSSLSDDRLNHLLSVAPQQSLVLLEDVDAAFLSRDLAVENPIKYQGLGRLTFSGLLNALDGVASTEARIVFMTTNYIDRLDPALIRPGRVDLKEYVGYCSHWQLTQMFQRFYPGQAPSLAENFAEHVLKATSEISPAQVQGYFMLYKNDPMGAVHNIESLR

How did the stoichiometry N [1] turn out when “AAA domain of mBcs1L (ΔNmBcs1L, residues 151-420) (from UniProt Q9CZP5 151-418) (domain or fragment)” was run?
The stoichiometry N was 7.

B1: extrinsic domain of the Rieske iron-sulfur protein (ISP-ED), bovine (domain or fragment, UniProt P13272 146-274, looked up)
chain: VLAMSKIEIKLSDIPEGKNMAFKWRGKPLFVRHRTKKEIDQEAAVEVSQLRDPQHDLERVKKPEWVILIGVCTHLGCVPIANAGDFGGYYCPCHGSHYDASGRIRKGPAPLNLEVPSYEFTSDDMVIVG
B1 was tested. Which “ATPase activity of mBcs1L (malachite green, 37 °C, 15 min) at different ISP-ED:mBcs1L heptamer molar ratios; maximal stimulation at a ratio of 3-4, no further change at higher ratios” value [2] did it give?
Its value is ~50 % stimulation.
